# Test results from patent US20240336661A1, “PEPTIDES DERIVED FROM RUMINOCOCCUS TORQUES” (University of Copenhagen, priority 2021, published 2024).
# Tested on: perfused rat colon
# Assay: Hormone release in the isolated perfused rat colon
# Source text: (§1) FIG. 14. Recombinant RUCILP2 stimulates glucagon like peptide-1 (GLP-1) secretion in perfused rat colon when RUCILP2 is perfused through the luminal route. Left, GLP-1 secretion from the isolated perfused rat colon in the presence of RUCILP2, means±SEM, n=6 in each group. Right, baseline subtracted total GLP-1 output during 10-min (minutes 12-21) luminal infusions. **, p<0.01 using Student's t test.
# as §1, with “15.” for “14.”, “Peptide-YY (PYY)” for “glucagon like peptide-1 (GLP-1)”, “PYY” for “GLP-1”
# as §1, with “16.” for “14.”, “somatostatin” for “glucagon like peptide-1 (GLP-1)”, “Somatostatin” for “GLP-1”, “*, p<0.05” for “**, p<0.01”
# Animals: Male Wistar rats (˜250 g) were obtained from Janvier (Le Genest-Saint-Isle, France) and housed with two to four rats per cage. Rats were allowed one week of acclimatization kept on a 12:12 h light/dark cycle with ad libitum access to water and standard chow.
# Isolation and perfusion of the proximal rat colon: At the day of experiment, non-fasted rats were anaesthetized with a subcutaneous injection of Hypnorm/Midazolam (0.0158 mg fentanyl citrate+0.5 mg fluanisone+0.25 mg midazolam/100 g). When lack of reflexes was established, rats were placed on a heating plate (37° C.) and the abdominal cavity opened. […] A plastic tube was placed in the lumen of the colon, and the colon was gently flushed with isotonic saline (room temperature) to remove luminal contents. Throughout the experimental protocol, a constant luminal flow of saline was applied via a syringe pump (0.15 ml/min). […] A metal catheter was inserted into vena portae to collect the venous effluent. […] As an indicator of health of the colon, perfusion pressure was monitored throughout the experiment. […]
# Hormone measurement: Peptide hormones were measured using in-house radioimmunoassays: total GLP-1 (the sum of 7-36NH2, 9-36NH2 and potential mid-terminal cleaved fragments) was measured using a C-terminal specific antibody targeting amidated forms of GLP-1 (code no. 89390). Total PYY (PYY1-36+PYY3-36) was measured with a porcine antiserum (cat. no T-4093; Bachem). Somatostatin was measured using a side-viewing antibody (code no. 1758-5), detecting all bioactive forms of somatostatin.
molecule,measurement,setting,value
"RUCILP2: 87 amino acid irisin-like polypeptide cleaved from the Ruminococcus torques FNDC5-like protein RUMTOR_00181; recombinant, 6-His-tagged from E. coli (protein, 6-His tag; Ruminococcus torques, 87 amino acid irisin-like polypeptide cleaved from the Ruminococcus torques FNDC5-like protein RUMTOR_00181; recombinant, 6-His-tagged from E. coli) APVDVKVSEITETSAKASWKNAADGKEAAGYNVYVDGVKLNKELLTEASCGLTNLKAETTYFVEVTAVDAAGNESVKSEKVTFKTLK",gut luminal release of Glucagon-like-peptide-2 (GLP-2),luminal infusion,stimulatory effects
same,GLP-1 secretion,luminal perfusion,stimulates
same,Peptide-YY (PYY) secretion,luminal perfusion,stimulates
same,somatostatin secretion,luminal perfusion,stimulates
